Laboratory results published in article PMC3656097.
Read-outs that look alike come from different tables or passages of the source.

Experiments:
FGF2 [1] = target: FGF2 (UniProt P09038); settings: cited from earlier work
FGF2 [2] = target: FGF2 (UniProt P09038); assay: SPR; BIAcore 3000; […] (31.25–[…]), HBS-EP buffer; 1:1 Langmuir fit
FGF9 [3] = target: FGF9 (UniProt P31371); assay: as above
FGF2 [4] = target: FGF2 (UniProt P09038); assay: as above; remark: listed apart in the source
FGF9 [5] = target: FGF9 (UniProt P31371); assay: as above; remark: listed apart in the source

Substance: FGFR2b Loop 2,3 (from UniProt P21802)
- Kd (FGF2 [1]): 0.0128 µM

Substance: FGFR3b Loop 2,3 (domain or fragment)
- Kd (FGF2 [2]): 0.0135 µM
- koff (FGF2 [2]): 6.69e-05 s⁻¹
- kon (FGF2 [2]): 4980 M⁻¹ s⁻¹
- Kd (FGF9 [3]): 0.0299 µM
- koff (FGF9 [3]): 6.53e-05 s⁻¹
- kon (FGF9 [3]): 2190 M⁻¹ s⁻¹
- Kd (FGF2 [4]): 0.0123 µM
- koff (FGF2 [4]): 0.000159 s⁻¹
- kon (FGF2 [4]): 16500 M⁻¹ s⁻¹
- Kd (FGF9 [5]): 0.0312 µM
- koff (FGF9 [5]): 9.25e-05 s⁻¹
- kon (FGF9 [5]): 2920 M⁻¹ s⁻¹
